Source: patent publication US20180044374A1
Where “and” joins values, the source holds several entries; their conditions need not be identical. Identical values can stand only once.

How the values were obtained:
[1] = target: human polyclonal IgG (Gammanorm) (human); test: dynamic binding capacity; matrix A18, ligand 8.2 mg/ml
[2] = target: human polyclonal IgG (Gammanorm) (human); test: dynamic binding capacity; matrix A63a, ligand 14.0 mg/ml
[3] = target: human polyclonal IgG (Gammanorm) (human); test: dynamic binding capacity; matrix A32, ligand […]
[4] = target: human polyclonal IgG (Gammanorm) (human); test: dynamic binding capacity; matrix B5, ligand 9.6 mg/ml
[5] = target: human polyclonal IgG (Gammanorm) (human); test: dynamic binding capacity; matrix A20, ligand […]
[6] = target: human polyclonal IgG (Gammanorm) (human); test: dynamic binding capacity; matrix C4, ligand […]
[7] = target: human polyclonal IgG (Gammanorm) (human); test: dynamic binding capacity; matrix A39, ligand 7.0 mg/ml
[8] = target: human polyclonal IgG (Gammanorm) (human); test: dynamic binding capacity; matrix A20, ligand 7.3 mg/ml
[9] = target: human polyclonal IgG (Gammanorm) (human); test: dynamic binding capacity; matrix I1, ligand 11.2 mg/ml
[10] = target: human polyclonal IgG (Gammanorm) (human); test: dynamic binding capacity; matrix A41, ligand 5.0 mg/ml
[11] = target: human polyclonal IgG (Gammanorm) (human); test: dynamic binding capacity; matrix A65a, ligand 13.6 mg/ml
[12] = target: human polyclonal IgG (Gammanorm) (human); test: dynamic binding capacity; ligand 13 mg/ml, before 1 M NaOH
[13] = target: human polyclonal IgG (Gammanorm) (human); test: dynamic binding capacity; matrix A38, ligand 11.34 mg/ml
[14] = target: human polyclonal IgG (Gammanorm) (human); test: dynamic binding capacity; matrix C4, ligand 10.1 mg/ml
[15] = target: human polyclonal IgG (Gammanorm) (human); test: dynamic binding capacity; matrix A63a, ligand 6.6 mg/ml
[16] = target: human polyclonal IgG (Gammanorm) (human); test: dynamic binding capacity; matrix A29, ligand 7.3 mg/ml
[17] = target: human polyclonal IgG (Gammanorm) (human); test: dynamic binding capacity; matrix A38, ligand 7.45 mg/ml
[18] = target: human polyclonal IgG (Gammanorm) (human); test: dynamic binding capacity; matrix A43, ligand 6.99 mg/ml
[19] = target: human polyclonal IgG (Gammanorm) (human); test: dynamic binding capacity; matrix A33, ligand 9.4 mg/ml
[20] = target: human polyclonal IgG (Gammanorm) (human); test: dynamic binding capacity; matrix B5, ligand 6.3 mg/ml
[21] = target: human polyclonal IgG (Gammanorm) (human); test: dynamic binding capacity; matrix C3, ligand […]; details: ligand content 5.9 mg/ml
[22] = target: human polyclonal IgG (Gammanorm) (human); test: dynamic binding capacity; matrix A29, ligand 11 mg/ml
[23] = target: human polyclonal IgG (Gammanorm) (human); test: dynamic binding capacity; matrix A62a, ligand 14.8 mg/ml
[24] = target: human polyclonal IgG (Gammanorm) (human); test: dynamic binding capacity; matrix A38, ligand 11.3 mg/ml
[25] = target: human polyclonal IgG (Gammanorm) (human); test: dynamic binding capacity; matrix A42, ligand […]
[26] = target: human polyclonal IgG (Gammanorm) (human); test: dynamic binding capacity; matrix C2, ligand […]
[27] = target: human polyclonal IgG (Gammanorm) (human); test: dynamic binding capacity; matrix A33, ligand 7.33 mg/ml
[28] = target: human polyclonal IgG (Gammanorm) (human); test: dynamic binding capacity; matrix A28, ligand 15.8 mg/ml
[29] = target: human polyclonal IgG (Gammanorm) (human); test: dynamic binding capacity; matrix A40, ligand 6.1 mg/ml
[30] = target: human polyclonal IgG (Gammanorm) (human); test: dynamic binding capacity; matrix A40, ligand 13.15 mg/ml
[31] = target: human polyclonal IgG (Gammanorm) (human); test: dynamic binding capacity; matrix A41, ligand 8.83 mg/ml
[32] = target: human polyclonal IgG (Gammanorm) (human); test: dynamic binding capacity; matrix A41, ligand 13.0 mg/ml

“Zvar(Q9A, N11E, Q40V, A42K, N43A, L44I)4 (designed binder)” showed a Qb10% 2.4 min [1] of 52 mg/mL, a Qb10% 6 min [1] of 59 mg/mL and a Qb10% 2.4 min [2] of 48 mg/mL. It also gave a Qb10% 6 min [2] of 56 mg/mL, a Qb10% 2.4 min [3] of 40 mg/mL and a Qb10% 6 min [3] of 57 mg/mL. It also gave a Qb10% 2.4 min [4] of 45 mg/mL, a Qb10% 6 min [4] of 47 mg/mL and a Qb10% 2.4 min [5] of 49 mg/mL. It also gave a Qb10% 6 min [5] of 67 mg/mL, a Qb10% 2.4 min [6] of 59 mg/mL and a Qb10% 6 min [6] of 67 mg/mL. For the same substance, the Qb10% 2.4 min [7] was 42 mg/mL, the Qb10% 6 min [7] was 55 mg/mL and the Qb10% 2.4 min [8] was 45 mg/mL and 45.1 mg/mL. For the same substance, the Qb10% 6 min [8] was 57 mg/mL and 57.2 mg/mL, the Qb10% 2.4 min [9] was 57 mg/mL and the Qb10% 6 min [9] was 68 mg/mL. It also gave a Qb10% 2.4 min [10] of 35.6 mg/mL, a Qb10% 6 min [10] of 46 mg/mL and a Qb10% 2.4 min [11] of 52 mg/mL. For the same substance, the Qb10% 6 min [11] was 61 mg/mL, the Qb10%, 6 min, before incubation [12] was 79 mg/mL and the Qb10% 2.4 min [13] was 48.1 mg/mL. For the same substance, the Qb10% 6 min [13] was 72.8 mg/mL, the Qb10% 2.4 min [14] was 55 mg/mL and the Qb10% 6 min [14] was 63 mg/mL. The Qb10% 2.4 min [15] was 40 mg/mL, the Qb10% 6 min [15] was 44 mg/mL and the Qb10% 2.4 min [16] was 36.3 mg/mL. For the same substance, the Qb10% 6 min [16] was 51.8 mg/mL, the Qb10% 2.4 min [17] was 44.4 mg/mL and the Qb10% 6 min [17] was 58.2 mg/mL. For the same substance, the Qb10% 2.4 min [18] was 33.4 mg/mL, the Qb10% 6 min [18] was 49.8 mg/mL and the Qb10% 2.4 min [19] was 51 mg/mL. For the same substance, the Qb10% 6 min [19] was 58 mg/mL, the Qb10% 2.4 min [20] was 32 mg/mL and the Qb10% 6 min [20] was 38 mg/mL. The Qb10% 2.4 min [21] was 44 mg/mL, the Qb10% 6 min [21] was 52 mg/mL and the Qb10% 2.4 min [22] was 34.9 mg/mL. The Qb10% 6 min [22] was 64.7 mg/mL, the Qb10% 2.4 min [23] was 55 mg/mL and the Qb10% 6 min [23] was 62 mg/mL. It also gave a Qb10% 2.4 min [24] of 48 mg/mL, a Qb10% 6 min [24] of 73 mg/mL and a Qb10% 2.4 min [25] of 32.2 mg/mL. It also gave a Qb10% 6 min [25] of 57.8 mg/mL, a Qb10% 2.4 min [26] of 39 mg/mL and a Qb10% 6 min [26] of 46 mg/mL. For the same substance, the Qb10% 2.4 min [27] was 48.7 mg/mL, the Qb10% 6 min [27] was 55.8 mg/mL and the Qb10% 2.4 min [28] was 37 mg/mL. The Qb10% 6 min [28] was 67 mg/mL, the Qb10% 2.4 min [29] was 49 mg/mL and the Qb10% 6 min [29] was 59 mg/mL. For the same substance, the Qb10% 2.4 min [30] was 56.9 mg/mL, the Qb10% 6 min [30] was 71.1 mg/mL and the Qb10% 2.4 min [31] was 38.5 mg/mL and 37.8 mg/mL and 35.1 mg/mL. For the same substance, the Qb10% 6 min [31] was 56.8 mg/mL and 58.6 mg/mL and 57.2 mg/mL, the Qb10% 2.4 min [32] was 35 mg/mL and the Qb10% 6 min [32] was 62.2 mg/mL.
